Patent publication US12187785B2, “Recombinant protein and fragments thereof, method for producing said recombinant protein, synthetic gene and use of sculptin or recombinant protein for preparing a medicament or pharmaceutical composition for the prophylaxis and/or treatment of thromboembolic diseases or as a direct and specific …” (priority 2017, dated 2025)

Columns and labels:
trypsin [1] = target: T1, trypsin (Bos taurus, UniProt P00760); assay: Serine protease inhibition test, trypsin (chromogenic substrate); type: biochemical; conditions: recombinant protein 1, 100, 200 nM; protease 100 pM; 6 h at 37° C.
T1 construct: gene PRSS1
T1 sequence (P00760 24-246): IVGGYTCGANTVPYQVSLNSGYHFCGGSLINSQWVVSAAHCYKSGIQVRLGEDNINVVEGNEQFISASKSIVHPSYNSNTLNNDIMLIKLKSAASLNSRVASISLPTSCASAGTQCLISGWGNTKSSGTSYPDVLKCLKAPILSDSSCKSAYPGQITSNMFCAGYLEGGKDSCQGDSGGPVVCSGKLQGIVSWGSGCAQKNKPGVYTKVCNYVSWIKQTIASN
Procedure: (A) Inhibition of serine proteases through recombinant protein. Serine protease (100 pM; thrombin, plasmin, trypsin or factor Xa) was incubated with recombinant protein (1, 100 and 200 nM) in phosphate buffer 50 mM containing NaCl 150 mM and 0.1% of PEG 6000, pH 7.4 for 6 h at 37° C. Following addition of chromogenic substrate corresponding to reaction mixture, hydrolysis thereof was monitored at 405 nm. For factor Xa activity, buffer contained phosphatidylserine and phosphatidylcholine 50 μM. […] (B) Typical curves for hydrolysis of chromogenic substrate S-2238 (15 μM) by thrombin 0.1 nM in absence (trace a) or presence of recombinant protein (trace b, 15 pM; trace c, 30 pM; trace d, 60 pM and trace e, 100 pM) in phosphate buffer 50 mM containing NaCl 150 mM and 0.1% of PEG 6000, pH 7.4 at 37° C. (C) Residual activity of thrombin in presence of increasing concentration of recombinant protein. (D) Dose-response curves for thrombin inhibition by recombinant protein. Percentage of thrombin inhibition was plotted versus the concentration record of recombinant protein. Experimental condition of (C) and (D) is the same as in (B).
The first performed experiment was the test of serine proteases inhibition through recombinant protein. […] Hydrolysis of a chromogenic substrate through serine proteases in the presence and absence of recombinant protein was monitored in a spectrophotometer way. […]

trypsin [2] = target: T1, trypsin; assay: Degradation of recombinant protein by trypsin (SDS-PAGE and residual thrombin inhibition); type: in vitro ADME
Procedure: Recombinant protein (10 μM) was incubated with or without serine protease 1 μM (thrombin, plasmin, trypsin or factor Xa) in phosphate buffer 50 mM containing NaCl 150 mM and 0.1% of PEG 6000, pH 7.4 for 4, 6, 7 or 18 h at 37° C. Reaction mixtures (20 μl) were split by SDS-PAGE. (A) hydrolysis SDS-PAGE (15%) of recombinant protein by serine proteases following 6 h of incubation. (B) Percentage of thrombin inhibition by recombinant protein following 6 h of incubation with serine protease (see experimental procedures). (C) hydrolysis SDS-PAGE (15%) of recombinant protein by serine proteases following 18 h of incubation. (D) Percentage of thrombin inhibition by recombinant protein following 18 h of incubation with serine protease (see experimental procedures). Numbering of (B) and (D) corresponds to numbering of (A) and (C), respectively, and recombinant protein control is represented by CTRL. Recombinant protein (strip 1); thrombin (strip 2) and thrombin with recombinant protein (strip 3); plasmin (strip 4) and plasmin with recombinant protein (strip 5); trypsin (strip 6) and trypsin with recombinant protein (strip 7); factor Xa (strip 8) and factor Xa with recombinant protein (strip 9) and protein marker (strip 10; in A). (E) Identification of cleavage sites of thrombin in recombinant protein following 7 h of incubation. (F) Identification of cleavage sites of factor Xa in recombinant protein following 4 h of incubation. Cleavage sites of thrombin and factor Xa in recombinant protein sequence are shown in FIGS. S1 and S2, respectively. Experimental procedure for (C), (D), (E) and (F) was the same as for (A) and (B), except the incubation time and the type of serine protease used. FIG. 5 discloses “GKPQG” as SEQ ID NO: 18, “MPKGG” as SEQ ID NO: 19, and “SDAVH” as SEQ ID NO: 20.
Afterwards, it was determined whether serine proteases, like thrombin, plasmin, factor Xa and trypsin, hydrolyze recombinant protein. […] Upon addition of chromogenic substrate S-2238, the hydrolysis thereof by thrombin was monitored in spectrophotometer way. […]

B1: GKPQGHPHDALEARSDAVHTAVPKMPKGGHGGFEPIPIDYDERALEARSDAVHTAVPKMPKGGLGGFEPIPIDYDERALEARSDAVHTAVPKMPKGGHGGFEPIPIDYDERALEARSDAVHTAVPKMPKGGHGGFEPIPIDYDERALHALEHHHHHH (protein)
chain: GKPQGHPHDALEARSDAVHTAVPKMPKGGHGGFEPIPIDYDERALEARSDAVHTAVPKMPKGGLGGFEPIPIDYDERALEARSDAVHTAVPKMPKGGHGGFEPIPIDYDERALEARSDAVHTAVPKMPKGGHGGFEPIPIDYDERALHALEHHHHHH
modifications: Sculptin recombinat protein
notes: recombinant His-tagged protein modified from tick sculptin, expressed in E. coli
inhibition of trypsin (trypsin [1]): did not inhibit
SDS-PAGE strip of 20-kDa (non-digested recombinant protein) (trypsin [2]; 10 μM protein with 1 μM trypsin, 6 h at 37° C.): completely disappeared
SDS-PAGE strip of 20-kDa (recombinant protein monomer) (trypsin [2]; 10 μM protein with 1 μM trypsin, 18 h at 37° C.): completely disappeared
thrombin inhibition after incubation (trypsin [2]; after 18 h incubation with trypsin, diluted to 100 pM): did not inhibit thrombin
